Holding throughout (conditions): both partners purified
Assay [1] addresses T1, full-length human HP1α WT (hHP1α), recombinant (human, UniProt P45973 1-191).
T1 construct: heterochromatin protein 1 alpha (HP1α), human, full length; Used as a dimer; The 6His-MBP tag was removed with TEV protease; also called HP1α (full-length, FL); HP1α dimer; source: E. coli BL21 DE3 (pCold), purified (Amylose Resin, TEV cleavage, Ni-NTA flow-through, HiTrap Q)
Nature of the assay: ITC; VP-ITC, 10 μM INCENP peptide or fragment in the cell, 100 μM HP1α full-length or CSD dimer in the syringe, 20°C, 20 mM NaPO4 pH 7.0, 150 mM NaCl, 1 mM DTT (Fig. 2D, Fig. 3D and E); one-site model.

The target in assay [2] is T1, full-length human HP1α WT (hHP1α), …. Description: pull-down; 10 μM full-length hHP1α mixed with 5 μM GST-tagged hINCENP -6His fragments in 20 mM NaPO4 pH 7.0, 150 mM NaCl, 1 mM DTT, 30 min at 4°C; Glutathione Sepharose 4B; CBB staining.
Assay [3] has the same target. Nature of the assay: ITC; VP-ITC, 10 μM INCENP fragment in the cell, 100 μM HP1α dimer in the syringe, 20°C, 10 mM Tris pH 8.0, 150 mM NaCl, 1 mM DTT (Fig. 2C); one-site model. In general terms: ITC needs no label: the signal is the heat of the interaction.
For assay [4] the target is unchanged. Description: ITC; iTC200, full-length HP1α dimer in the cell (60 μM for hINCENP, 80 μM for hSgo1), 600 μM hINCENP or 800 μM hSgo1 fragment in the syringe, 25°C, 20 mM NaPO4 pH 7.0, 150 mM NaCl, 1 mM DTT (Fig. 6A, Fig. S5A); one-site model.

T1 sequence (P45973 whole entry): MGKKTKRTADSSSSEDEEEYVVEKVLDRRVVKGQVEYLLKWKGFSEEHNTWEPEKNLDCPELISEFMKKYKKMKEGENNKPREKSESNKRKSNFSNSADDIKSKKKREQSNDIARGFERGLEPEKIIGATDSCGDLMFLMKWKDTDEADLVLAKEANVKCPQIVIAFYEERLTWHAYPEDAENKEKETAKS

B1: human INCENP (160-210) -6His, GST removed (domain or fragment, UniProt Q9NQS7 160-210, looked up)
chain: HTQCQLVPVVEIGISERQNAEQHVTQLMSTEPLPRTLSPTPASATAPTSQG
notes: INCENP, human, residues 160-210; Isotope-labelled (15N or 13C/15N) in the NMR experiments and unlabelled in ITC; also called 15N-INCENP (160–210) -6His; 13C/15N-INCENP (160–210) -6His; source: E. coli BL21 Codon Plus (pGEX6P1), purified (Ni-NTA, PreScission cleavage, Glutathione Sepharose flow-through, SEC); for NMR grown in M9 medium with 15N-ammonium chloride with or without 13C-glucose; not …
For B1, the binding result in assay [1] is reported as “binds”.

B2: GST-tagged human INCENP (160-210) -6His (domain or fragment, UniProt Q9NQS7 160-210, looked up)
chain: HTQCQLVPVVEIGISERQNAEQHVTQLMSTEPLPRTLSPTPASATAPTSQG
notes: INCENP, human, residues 160-210; also called INCENP fragment 160–210; source: E. coli BL21 Codon Plus (pGEX6P1), purified (non-cleaved version, SEC); not shown: His6, C-terminal, kept
With B2, the binding result in assay [2] is listed as “binds”.

B3: human INCENP (121-210) -6His, GST removed (Fig. 2D) (domain or fragment, UniProt Q9NQS7 121-210, looked up)
chain: LRRVTRAAAAAAAATMALAAPSSPTPESPTMLTKKPEDNHTQCQLVPVVEIGISERQNAEQHVTQLMSTEPLPRTLSPTPASATAPTSQG
notes: source: E. coli BL21 Codon Plus (pGEX6P1), purified (Ni-NTA, PreScission cleavage, Glutathione Sepharose flow-through, SEC)
Turning to B3, the binding result in assay [1] was “binds”.

B4: human INCENP (121-270) WT -6His, GST removed (domain or fragment, UniProt Q9NQS7 121-270, looked up)
chain: LRRVTRAAAAAAAATMALAAPSSPTPESPTMLTKKPEDNHTQCQLVPVVEIGISERQNAEQHVTQLMSTEPLPRTLSPTPASATAPTSQGIPTSDEESTPKKSKARILESITVSSLMATPQDPKGQGVGTGRSASKLRIAQVSPGPRDSP
notes: The methods describe no removal of the 6His tag; source: E. coli BL21 Codon Plus (pGEX6P1), purified (Ni-NTA, PreScission cleavage, Glutathione Sepharose flow-through, SEC)
In the case of B4, in assay [3], the Kd (as a rule, the equilibrium constant for the complex coming apart) stood at 0.042 µM.

B5: human Sgo1 fragment (405-494), Tyr-added, GST removed (domain or fragment)
chain: YAKRALKYTDEKETEGSKPTKTPTTTPPETQQSPHLSLKDITNVSLYPVVKIRRLSLSPKKNKASPAVALPKRRCTASVNYKEPTLASKLR
notes: tyrosine residue inserted after the PreScission site, to determine the concentration; Sgo1 (shugoshin 1), human, residues 405-494, contains the canonical PVI motif; also called Sgo1 fragment containing the PVI motif (residues 405–494); Sgo1 405–494; source: E. coli BL21 Codon Plus (pGEX6P1), purified (Glutathione Sepharose, PreScission cleavage, SEC)
As to B5, the Kd in assay [4] is around 4 µM.

For the origin of these results see paper PMC11116813, “Bipartite binding interface recruiting HP1 to chromosomal passenger complex at inner centromeres” (The Journal of Cell Biology, 2024).
